Measurements as given in US11906519B2, “Methods for identifying LILRB-blocking antibodies” (THE BOARD OF REGENTS OF THE UNIVERSITY OF TEXAS SYSTEM, priority 2016, dated 2024).
One block for each molecule: values may come before it.

Assays:
[1] = biological target: T1, PirB (Mus musculus, UniProt P97484); assay: PirB chimeric receptor reporter cells; type: cell-based
T1 construct: PILRbeta part (fusion partner); expressed in transfected cells
T1 sequence (P97484 25-642): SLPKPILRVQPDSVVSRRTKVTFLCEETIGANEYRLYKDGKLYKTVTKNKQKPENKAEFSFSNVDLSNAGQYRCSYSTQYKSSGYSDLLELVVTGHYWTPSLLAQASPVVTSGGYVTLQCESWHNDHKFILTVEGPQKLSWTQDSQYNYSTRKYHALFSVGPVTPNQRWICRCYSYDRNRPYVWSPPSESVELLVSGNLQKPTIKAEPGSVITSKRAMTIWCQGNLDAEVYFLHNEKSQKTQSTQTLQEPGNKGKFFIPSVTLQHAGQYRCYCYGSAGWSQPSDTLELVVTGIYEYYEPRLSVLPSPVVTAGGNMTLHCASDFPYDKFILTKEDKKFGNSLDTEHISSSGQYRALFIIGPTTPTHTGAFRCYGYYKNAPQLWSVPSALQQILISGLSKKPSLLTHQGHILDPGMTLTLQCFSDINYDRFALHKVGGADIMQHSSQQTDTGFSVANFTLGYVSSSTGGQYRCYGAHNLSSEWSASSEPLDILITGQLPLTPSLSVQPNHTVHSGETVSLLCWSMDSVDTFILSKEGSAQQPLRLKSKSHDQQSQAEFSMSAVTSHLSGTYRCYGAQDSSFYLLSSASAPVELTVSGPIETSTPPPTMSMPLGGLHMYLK
Description: (§1) Chimeric receptor reporter cells. The inventors constructed a stable chimeric receptor reporter cell system as described^2 31 to test the ability of a ligand to bind to the ECD of individual LILRBs, PirB, and gp49B1 and to trigger the activation or inhibition of the chimerically fused intracellular domain of paired immunoglobulin-like receptor β, which signals through the adaptor DAP-12 to activate the NFAT promoter. If an agonist or antagonist binds the ECD and activates or suppresses the chimeric signaling domain, an increase or decrease, respectively, in GFP expression is observed.

[2] = biological target: T2, LILRB4-Fc (Homo sapiens, UniProt Q8NHJ6); assay: Surface plasmon resonance (SPR) binding of APOE to LILRB4-Fc; settings: APOE 1.5625 nM to 100 nM
Description: (§2) FIGS. 25a-251—APOE binds LILRB4 and supports AML migration. FIG. 25a: As shown by analysis of the percentage of cells in the LILRB4 reporter system that are GFP^+, human serum and mouse serum specifically activate LILRB4. FIG. 25b: Recombinant APOE activates human LILRB4 and mouse PIRB in reporter systems. FIG. 25c: Serum from APOE-null mouse was unable to activate LILRB4. FIG. 25d: Lipid-reconstituted APOE (APOE-POPC) activates human LILRB4 as well as recombinant APOE in reporter systems. […] Cells stained with anti-His tag-APC served as a negative control. FIG. 25f: Binding kinetics of human APOE-3 to LILRB4-ECD-Fc were measured using surface plasmon resonance (SPR). LILRB4-ECD-Fc was immobilized on Protein A biosensor tips and incubated with APOE-3 concentrations ranging from 1.5625 nM to 100 nM. FIG. 25g: The activation of LILRB4 by APOE was reduced by mutation at N-terminal of APOE. FIG. 25h: The activation of LILRB4 by APOE was reduced by the indicated single amino acid mutation of LILRB4. FIG. 25i-FIG. 25l: APOE is necessary for LILRB4-mediated homing. Forced expression of human lilrb4 on mouse leukemia C1498 cells increases leukemia cell homing in wildtype (WT) recipient mice (n=5) (shown in FIG. 25i). Human lilrb4-expressing C1498 cells (1), but not control GFP-expressing C1498 cells (FIG. 25k), were less capable of homing in APOE-null (KO) mice (n=5) than in WT mice (n=5); Mice were sacrificed at 20 hrs after injection of leukemia cells. GFP was used to detect leukemia cells by flow cytometry.
(§3) FIGS. 29a-29g—Three APOE isoforms bind to human LILRB4. FIGS. 29a-c: Binding kinetics of APOE 2, 3, and 4 to LILRB4-Fc were measured using surface plasmon resonance (SPR). LILRB4-Fc was immobilized on Protein A biosensor tips and incubated with APOE concentrations ranging from 1.5625 nM to 100 nM. […] (FIGS. 29d-f) Binding kinetics of APOE 2, 3, and 4 to LILRB4-Fc were measured using Bio-layer Interferometry (Octet). LILRB4-Fc was immobilized on Protein A biosensor tips and incubated with APOE concentrations ranging from 44 nM to 1176 nM. […] (FIG. 29g) Binding kinetics of APOE 3 to His-LILRB4 was measured using microscale thermophoresis (MST).

[3] = biological target: T3, LILRB4 (Homo sapiens, UniProt Q8NHJ6); assay: LILRB4 chimeric receptor reporter cells (NFAT-GFP); type: cell-based; settings: for Activation of LILRB4 reporter: percentage of GFP+ reporter cells; for Activation of LILRB4 reporter by APOE isoforms: 40 μg/ml APOEs coated on plates or soluble
T3 construct: fusion of the extracellular domain (ECD) of individual LILRBs and their mouse orthologues; PILRbeta part (fusion partner); expressed in transfected cells
Description: The inventors sought to determine if antagonizing LILRB4 could prevent AML development by reversing LILRB4-mediated immune inhibition. To identify potential agonists and antagonists of LILRBs, the inventors generated individual stable chimeric receptor reporter cells based on fusion of the extracellular domain (ECD) of individual LILRBs and their mouse orthologues PirB^27 and gp49B1^28, with the intracellular domain of paired immunoglobulin-like receptor β, which signals through the adaptor DAP-12 to activate NFAT promoter-driven GFP expression, as the inventors have described^2, 31. With help from this system, the inventors generated novel anti-LILRB4 blocking antibodies to further assess LILRB4-mediated signaling (FIG. 10).
as §1
APOE competition assay was used to screen LILRB4 blocking antibodies. Briefly, APOE proteins were pre-coated on 96-well plate at 37° C. for 3 hrs. After 2 times washing by PBS, 2×10^4 LILRB4 reporter cells were seeded in each well; meanwhile, indicated anti-LILRB4 antibodies were added into culture media. After 16 hrs, the percentage of GFP^+ reporter cells was analysed by flow cytometry.

[4] = biological target: T4, gp49B1 (Mus musculus, UniProt Q64281); assay: gp49B1 chimeric receptor reporter cells; type: cell-based
T4 construct: PILRbeta part (fusion partner); expressed in transfected cells
T4 sequence (Q64281 24-238): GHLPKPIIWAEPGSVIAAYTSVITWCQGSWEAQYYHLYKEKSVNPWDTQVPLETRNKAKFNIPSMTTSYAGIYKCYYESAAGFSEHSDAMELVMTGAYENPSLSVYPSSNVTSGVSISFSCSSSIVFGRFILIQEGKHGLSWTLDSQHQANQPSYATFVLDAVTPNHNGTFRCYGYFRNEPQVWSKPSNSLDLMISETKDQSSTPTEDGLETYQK
Description: as §1

[5] = tested on: THP-1 cells; assay: APOE binding to THP-1 cells by flow cytometry; set-up: species or system human; settings: lilrb4-knockout versus wild-type THP-1 cells
Description: as §2, with “Human lilrb4-expressing C1498 cells (1), but not control GFP-expressing C1498 cells (FIG. 25k), were less capable of homing in APOE-null (KO) mice (n=5) than in WT mice (n=5); Mice were sacrificed at 20 hrs after injection of leukemia cells. GFP was used to detect leukemia cells by flow cytometry.” left out

[6] = tested on: THP-1 cells; assay: Transwell trans-endothelial migration of THP-1 cells; type: cell-based, human; settings: 2.5 μM STAT inhibitor
[7] = biological target: T2, LILRB4-Fc; assay: Bio-layer interferometry (Octet) binding of APOE to LILRB4-Fc; settings: APOE 44 nM to 1176 nM
Description: as §3
Bio-layer Interferometry. Binding interactions analyses between LILRB4-Fc with APOE2, APOE3, and APOE4 were performed on the Octet RED96 (ForteBio, Pall Corporation). All interaction studies were performed with the protein A dip-and-read biosensors (ForteBio). All binding experiments were performed using the Octet Red and kinetics buffer at 30° C. LILRB4-Fc coated biosensors (25 μg/ml LILRB4-Fc was loaded for 420 s) were washed in kinetics buffer before monitoring of association (300 s) and dissociation (600 s) of APOEs. Background wavelength shifts were measured from reference sensors that were loaded only with LILRB4-Fc.

[8] = tested on: T cells co-cultured with THP-1 cells; assay: Tumor cell/T cell co-culture assay; type: cell-based, human; settings: T cells with irradiated THP-1 cells, protein supplemented
Description: Tumor cell/T cell co-culture assay. Human T cells isolated from health donor peripheral blood (PB009-1-0, Allcells) were co-cultured with irradiated (28 Gy) THP-1 cells in a U-bottom 96 well-plate for 3-7 days. Anti-CD3/CD28-coated beads (#11161D, Thermo Fisher), 50 U/ml recombinant human IL-2, and 5 ng/ml recombinant human IL-7 were supplemented to the medium. In some experiments, THP-1 cells were cultured in the upper chamber of transwell inserts (pore size is 3 μM, #09-761-80, Thermo Fisher) for the U-bottom 96 well-plate. For primary AML or B-ALL samples, patient CD3^+ T cells were collected and patient leukemia cells were sorted as CD33^+ and CD19^+ for AML and B-ALL, respectively.
CD8^+ T cells (5×10^4 per well) isolated from hPBMCs of a healthy donor (Interstate Blood Bank) were stimulated with anti-CD3/CD28/CD137-coated beads (11163D, Thermo Fisher) or cultured without stimulation for 2 days in a 96-well plate. Then, 5×10^3 human leukemia THP-1-Luc-GFP cells and 50 to 500 μg/ml anti-LILRB4 antibody C84 or control antibody mIgG were added. Cell numbers were determined on day 7 in triplicate wells. Anti-CD8 and anti-CD28 were used to detect human CTL cells; THP-1 cells were positive for GFP. […]

T2 sequence (Q8NHJ6 22-259 limits assumed): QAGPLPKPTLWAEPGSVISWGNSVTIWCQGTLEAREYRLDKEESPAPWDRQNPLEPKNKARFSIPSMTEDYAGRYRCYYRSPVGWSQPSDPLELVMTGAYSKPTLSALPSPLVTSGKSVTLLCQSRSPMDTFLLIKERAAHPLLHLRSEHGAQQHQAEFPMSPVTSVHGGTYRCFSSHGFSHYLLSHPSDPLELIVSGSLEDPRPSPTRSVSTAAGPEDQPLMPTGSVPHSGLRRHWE
T3 sequence (Q8NHJ6 with tags, fused parts or gaps): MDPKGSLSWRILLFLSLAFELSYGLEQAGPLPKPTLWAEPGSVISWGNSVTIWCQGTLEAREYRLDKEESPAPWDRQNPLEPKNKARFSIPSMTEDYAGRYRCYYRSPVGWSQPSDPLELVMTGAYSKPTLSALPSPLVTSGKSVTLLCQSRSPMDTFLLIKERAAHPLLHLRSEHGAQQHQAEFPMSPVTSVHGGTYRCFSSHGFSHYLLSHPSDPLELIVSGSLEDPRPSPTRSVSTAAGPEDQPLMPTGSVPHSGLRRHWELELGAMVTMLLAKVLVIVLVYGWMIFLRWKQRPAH

Activation of mouse PirB reporter [1]: specifically activated
Kd [2]: 2 nM
Activation of LILRB4 reporter [3]: activates
Activation of gp49B1 reporter [4]: not
Molecule: recombinant APOE: recombinant APOE protein, isoform not stated at the place
Binding of APOE to THP-1 cells [5]: significantly decreased

Kd [7]: 60.7 nM
Kd [2]: 5.53 nM
Activation of LILRB4 reporter by APOE isoforms [3]: activate
Molecule: APOE2: isoform of human APOE, ligand of LILRB4

Kd [7]: 48.4 nM
Kd [2]: 3.57 nM
Activation of LILRB4 reporter by APOE isoforms [3]: activate
Molecule: APOE4: isoform of human APOE, ligand of LILRB4

Activation of LILRB4 reporter [3]: can activate
B1: mouse APOE: mouse APOE protein (protein)
chain: EGEPEVTDQLEWQSNQPWEQALNRFWDYLRWVQTLSDQVQEELQSSQVTQELTALMEDTMTEVKAYKKELEEQLGPVAEETRARLGKEVQAAQARLGADMEDLRNRLGQYRNEVHTMLGQSTEEIRARLSTHLRKMRKRLMRDAEDLQKRLAVYKAGAREGAERGVSAIRERLGPLVEQGRQRTANLGAGAAQPLRDRAQAFGDRIRGRLEEVGNQARDRLEEVREHMEEVRSKMEEQTQQIRLQAEIFQARLKGWFEPIVEDMHRQWANLMEKIQASVATNPIITPVAQENQ

Further lines, the molecule ahead of its results:

Molecule: O=[N+]([O-])c1ccc2c(c1)S(=O)(=O)C=C2 [stattic, reference compound]
THP-1 cell transmigration across endothelial cells [6]: decreases

Molecule: APOE3: isoform of human APOE, ligand of LILRB4
Kd [7]: 61.7 nM
Kd [2]: 2.48 nM
Activation of LILRB4 reporter by APOE isoforms [3]: activate

Molecule: APOE-POPC: liposome-reconstituted APOE protein
Activation of LILRB4 reporter [3]: same ability as lipid-free APOE protein

B2: CCL4: CCL4 protein supplemented in co-culture media (protein, UniProt P13236 24-92, looked up)
C-C motif chemokine 4: APMGSDPPTACCFSYTARKLPRNFVVDYYETSSLCSQPAVVFQTKRSKQVCADPSESWVQEYVYDLELN
T cell proliferation in coculture [8]: suppressed

B3: Mut-N: N-terminal mutant of human APOE: R142A/K143A/R145A/K146A/R147A/R150A (protein)
chain: KVEQAVETEPEPELRQQTEWQSGQRWELALGRFWDYLRWVQTLSEQVQEELLSSQVTQELRALMDETMKELKAYKSELEEQLTPVAEETRARLSKELQAAQARLGADMEDVCGRLVQYRGEVQAMLGQSTEELRVRLASHLAALAAALLADADDLQKRLAVYQAGAREGAERGLSAIRERLGPLVEQGRVRAATVGSLAGQPLQERAQAWGERLRARMEEMGSRTRDRLDEVKEQVAEVRAKLEEQAQQIRLQAEAFQARLKSWFEPLVEDMQRQWAGLVEKVQAAVGTSAAPVPSDNH
Activation of LILRB4 reporter [3]: significantly reduced
